Values joined by “and” are separate entries in the source; they are usually repeats but may differ in a detail not shown here. Identical values can stand only once.

Results on two molecules are retold here after doi:10.1101/2021.12.02.471034.

Test in all cases: SEC-MALS
In general terms: In gel filtration, larger molecules generally elute earlier.

The target in experiment [1] is Hsf1 CS mutant (C35S/C103S/C153S/C373S/C378S) (human) (UniProt Q00613).
Experiment [2] deals with T1, Heat shock factor 1 (Hsf1) (human), Q00613.
T1 chain: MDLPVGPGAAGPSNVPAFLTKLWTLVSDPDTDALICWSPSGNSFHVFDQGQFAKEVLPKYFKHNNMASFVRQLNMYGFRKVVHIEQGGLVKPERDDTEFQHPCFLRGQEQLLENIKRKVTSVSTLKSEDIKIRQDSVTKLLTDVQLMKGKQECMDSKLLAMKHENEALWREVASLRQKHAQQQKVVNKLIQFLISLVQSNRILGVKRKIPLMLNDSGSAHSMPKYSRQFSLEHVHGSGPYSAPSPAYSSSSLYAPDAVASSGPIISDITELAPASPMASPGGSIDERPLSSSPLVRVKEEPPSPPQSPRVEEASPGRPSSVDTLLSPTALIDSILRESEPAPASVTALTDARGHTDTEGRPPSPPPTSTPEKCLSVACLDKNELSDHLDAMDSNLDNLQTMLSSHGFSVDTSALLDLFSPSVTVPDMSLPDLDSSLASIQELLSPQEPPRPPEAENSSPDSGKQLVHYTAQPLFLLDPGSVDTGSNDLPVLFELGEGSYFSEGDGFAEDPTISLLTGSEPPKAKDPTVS
Conditions: remark: other sources report otherwise.

Experiment [3] deals with T1, Heat shock factor 1 (Hsf1) (human), …. Conditions: remark: other sources report otherwise.

The term stoichiometry N denotes the number of molecules, sites or subunits per partner or assembly. “Hsf1 CS mutant (C35S/C103S/C153S/C373S/C378S) (from UniProt Q00613 1-529) (natural protein)” gave a stoichiometry N in experiment [1] of 5.

B1: Heat shock factor 1 (Hsf1), Q00613 1-529 (natural protein)
chain: T1 chain
For B1, the stoichiometry N in experiment [2] is 9 and < 16; in experiment [3], 7.
